The text below walks through data of PMC11209935 (Cell, 2023).

This assay has as its target RPA1 (subunit of recombinant RPA and Alt-RPA) (human, UniProt P27694 1-616). The assay can be described thus: mass photometry.

RPA1 (subunit of recombinant RPA and Alt-RPA), sequence (P27694 whole entry): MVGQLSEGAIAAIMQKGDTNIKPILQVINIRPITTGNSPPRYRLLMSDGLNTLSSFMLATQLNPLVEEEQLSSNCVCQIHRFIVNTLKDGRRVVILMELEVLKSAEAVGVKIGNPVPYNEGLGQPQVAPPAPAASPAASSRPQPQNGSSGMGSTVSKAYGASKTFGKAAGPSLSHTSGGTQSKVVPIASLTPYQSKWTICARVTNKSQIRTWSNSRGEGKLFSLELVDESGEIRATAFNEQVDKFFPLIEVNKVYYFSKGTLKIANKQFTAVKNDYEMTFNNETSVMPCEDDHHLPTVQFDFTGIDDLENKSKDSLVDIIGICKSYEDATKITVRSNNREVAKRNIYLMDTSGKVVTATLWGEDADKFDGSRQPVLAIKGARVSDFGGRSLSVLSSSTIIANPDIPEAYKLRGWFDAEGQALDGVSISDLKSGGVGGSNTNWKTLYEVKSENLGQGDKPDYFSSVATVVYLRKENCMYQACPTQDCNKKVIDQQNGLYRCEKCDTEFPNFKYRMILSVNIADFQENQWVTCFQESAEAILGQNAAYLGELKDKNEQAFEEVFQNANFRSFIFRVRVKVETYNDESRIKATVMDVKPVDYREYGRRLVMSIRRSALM

B1: RPA4 (subunit of recombinant Alt-RPA) (natural protein, human, UniProt Q13156 1-261, looked up)
chain: MSKSGFGSYGSISAADGASGGSDQLCERDATPAIKTQRPKVRIQDVVPCNVNQLLSSTVFDPVFKVRGIIVSQVSIVGVIRGAEKASNHICYKIDDMTAKPIEARQWFGREKVKQVTPLSVGVYVKVFGILKCPTGTKSLEVLKIHVLEDMNEFTVHILETVNAHMMLDKARRDTTVESVPVSPSEVNDAGDNDESHRNFIQDEVLRLIHECPHQEGKSIHELRAQLCDLSVKAIKEAIDYLTVEGHIYPTVDREHFKSAD
B1: the binding result is reported as “binds”.
